Molecular target: neuropilin 1 (human) (UniProt O14786)
Experiment: radioligand binding

Chain of UniProt O14786 (O14786 22-923): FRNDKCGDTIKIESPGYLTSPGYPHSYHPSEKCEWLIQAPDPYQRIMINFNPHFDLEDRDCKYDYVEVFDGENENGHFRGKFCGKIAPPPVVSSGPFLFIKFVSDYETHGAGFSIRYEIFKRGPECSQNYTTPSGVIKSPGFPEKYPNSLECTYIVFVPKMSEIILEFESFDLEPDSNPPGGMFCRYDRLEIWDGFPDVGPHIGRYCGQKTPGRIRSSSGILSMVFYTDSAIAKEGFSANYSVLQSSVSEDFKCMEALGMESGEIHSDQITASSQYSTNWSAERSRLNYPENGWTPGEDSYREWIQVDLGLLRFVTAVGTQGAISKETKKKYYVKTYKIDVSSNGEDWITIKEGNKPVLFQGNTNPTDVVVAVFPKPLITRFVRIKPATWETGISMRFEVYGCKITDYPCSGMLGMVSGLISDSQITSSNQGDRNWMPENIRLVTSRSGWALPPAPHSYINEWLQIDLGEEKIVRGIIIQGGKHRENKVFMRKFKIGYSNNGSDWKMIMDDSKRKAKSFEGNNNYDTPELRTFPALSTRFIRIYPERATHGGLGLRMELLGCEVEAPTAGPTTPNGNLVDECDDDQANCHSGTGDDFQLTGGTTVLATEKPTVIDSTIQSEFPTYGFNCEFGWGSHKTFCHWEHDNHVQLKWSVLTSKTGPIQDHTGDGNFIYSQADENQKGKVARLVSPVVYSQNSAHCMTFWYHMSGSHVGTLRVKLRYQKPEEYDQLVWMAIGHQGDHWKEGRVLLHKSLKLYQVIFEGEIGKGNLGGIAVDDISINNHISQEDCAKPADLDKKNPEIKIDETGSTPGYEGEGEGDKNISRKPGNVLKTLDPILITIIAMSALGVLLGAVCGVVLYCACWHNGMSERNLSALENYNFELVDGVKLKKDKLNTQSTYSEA

Q: “VEGF labelled by radioactive iodine (from UniProt P15692 1-395) (ligand)” was tested. Which I125VEGF bound did it give?
A: Its I125VEGF bound is 413 fmol/µg.

Q: And the I125VEGF bound in the presence of SN?
A: Its I125VEGF bound in the presence of SN is 504 fmol/µg.
